Laboratory results reported in patent US20180155451A1 (published 2018).

T1: FcγRIIa H (FcγRIIa, type H allotype, His at position 131), extracellular domain with C-terminal His tag (human, UniProt P12318 34-217)
T1 construct: extracellular domain; Soluble receptor expressed in FreeStyle293 cells; analyte in Biacore; also called FcgRIIa H; 2aH; not shown: C-terminal His tag
T1 sequence (looked up): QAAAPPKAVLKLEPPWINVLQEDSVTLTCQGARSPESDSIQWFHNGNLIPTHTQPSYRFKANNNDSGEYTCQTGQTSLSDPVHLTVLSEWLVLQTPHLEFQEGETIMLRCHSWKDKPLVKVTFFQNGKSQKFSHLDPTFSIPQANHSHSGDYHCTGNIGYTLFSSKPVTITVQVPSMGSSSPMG

T2: FcγRIIb, extracellular domain with C-terminal His tag (human, UniProt P31994 43-217)
T2 construct: extracellular domain; Soluble receptor expressed in FreeStyle293 cells; analyte in Biacore; also called FcgRIIb; 2b; not shown: C-terminal His tag
T2 sequence (looked up): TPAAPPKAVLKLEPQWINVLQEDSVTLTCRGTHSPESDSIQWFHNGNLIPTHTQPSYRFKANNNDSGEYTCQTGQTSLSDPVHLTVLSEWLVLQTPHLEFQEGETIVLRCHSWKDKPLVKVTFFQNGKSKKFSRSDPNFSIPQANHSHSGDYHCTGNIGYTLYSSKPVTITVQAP

T3: FcγRIIb (human, UniProt P31994 43-217)
T3 construct: extracellular domain; Soluble extracellular domain with C-terminal His tag, used as analyte in Biacore; also called FcgRIIb; 2b; not shown: His tag attached to the C terminus
T3 sequence (looked up): T2 sequence (looked up)

B1: GpH7-A5/GpH7-B3 variant E269_13S/GpL16-k0 (antibody, human IgG1, kappa)
heavy 1: not shown
heavy 2: not shown
light: DIVMTQSPLSLPVTPGEPASISCQASESLVHSNRNTYLHWYLQKPGQSPQLLIYKVSNRFSGVPDRFSGSGSGTDFTLKISRVEAEDVGVYYCSQNTHVPPTFGQGTKVEIERTVAAPSVFIFPPSDEQLKSGTASVVCLLNNFYPREAKVQWKVDNALQSGNSQESVTEQDSKDSTYSLSSTLTLSKADYEKHKVYACEVTHQGLSSPVTKSFNRGEC
notes: Heterodimerized IgG1; mutation only in the GpH7-B3 chain; also called He Ab
B2: GpH7-A5/GpH7-B3 variant E269_18N/GpL16-k0 (antibody, human IgG1, kappa)
heavy 1: not shown
heavy 2: not shown
light: B1 light
notes: as for B1
B3: GpH7-A5/GpH7-B3 variant S298_18N/GpL16-k0 (antibody, human IgG1, kappa)
heavy 1: not shown
heavy 2: not shown
light: B1 light
notes: as for B1
B4: GpH7-A5/GpH7-B3 variant Y300_03V/GpL16-k0 (antibody, human IgG1, kappa)
heavy 1: not shown
heavy 2: not shown
light: B1 light
notes: as for B1
B5: GpH7-A5/GpH7-B3 variant G236_10E/GpL16-k0 (antibody, human IgG1, kappa)
heavy 1: not shown
heavy 2: not shown
light: B1 light
notes: Heterodimerized IgG1; mutation in the GpH7-B3 H chain only; also called He Ab
B6: GpH7-A5/GpH7-B3 variant L234_20W/GpL16-k0 (antibody, human IgG1, kappa)
heavy 1: not shown
heavy 2: not shown
light: B1 light
notes: as for B5
B7: GpH7-A5/GpH7-B3 variant Q295_16H/GpL16-k0 (antibody, human IgG1, kappa)
heavy 1: not shown
heavy 2: not shown
light: B1 light
notes: as for B1
B8: GpH7-A5/GpH7-B3 variant A327_01G/GpL16-k0 (antibody, human IgG1, kappa)
heavy 1: not shown
heavy 2: not shown
light: B1 light
notes: as for B5
B9: GpH7-A5/GpH7-B3 variant S298_19Q/GpL16-k0 (antibody, human IgG1, kappa)
heavy 1: not shown
heavy 2: not shown
light: B1 light
notes: as for B1
B10: GpH7-A5/GpH7-B3 variant S298_03V/GpL16-k0 (antibody, human IgG1, kappa)
heavy 1: not shown
heavy 2: not shown
light: B1 light
notes: as for B1
B11: GpH7-A5/GpH7-B3 variant N325_01G/GpL16-k0 (antibody, human IgG1, kappa)
heavy 1: not shown
heavy 2: not shown
light: B1 light
notes: as for B5
B12: GpH7-A5/GpH7-B3 variant G237_13S/GpL16-k0 (antibody, human IgG1, kappa)
heavy 1: not shown
heavy 2: not shown
light: B1 light
notes: as for B5
B13: GpH7-A5/GpH7-B3 variant Q295_12R/GpL16-k0 (antibody, human IgG1, kappa)
heavy 1: not shown
heavy 2: not shown
light: B1 light
notes: as for B1
B14: GpH7-A5/GpH7-B3 variant E269_15Y/GpL16-k0 (antibody, human IgG1, kappa)
heavy 1: not shown
heavy 2: not shown
light: B1 light
notes: as for B1
B15: GpH7-A5/GpH7-B3 variant Q295_07I/GpL16-k0 (antibody, human IgG1, kappa)
heavy 1: not shown
heavy 2: not shown
light: B1 light
notes: as for B1
B16: GpH7-A5/GpH7-B3 variant S298_14T/GpL16-k0 (antibody, human IgG1, kappa)
heavy 1: not shown
heavy 2: not shown
light: B1 light
notes: as for B1
B17: GpH7-A5/GpH7-B3 variant Y300_06M/GpL16-k0 (antibody, human IgG1, kappa)
heavy 1: not shown
heavy 2: not shown
light: B1 light
notes: as for B1
B18: GpH7-A5/GpH7-B3 variant Q295_13S/GpL16-k0 (antibody, human IgG1, kappa)
heavy 1: not shown
heavy 2: not shown
light: B1 light
notes: as for B1
B19: GpH7-A5/GpH7-B3 variant Q295_05P/GpL16-k0 (antibody, human IgG1, kappa)
heavy 1: not shown
heavy 2: not shown
light: B1 light
notes: as for B1

How the values were obtained:
[1] = molecular target: T1, FcγRIIa H (FcγRIIa, type H allotype, …); assay: SPR (Biacore), captured antibody, FcγR as analyte
[2] = molecular target: T2, FcγRIIb, extracellular domain with …; assay: SPR (Biacore), captured antibody, FcγR as analyte
[3] = molecular target: T1, FcγRIIa H (FcγRIIa, type H allotype, …); assay: ratio of He/Con_2aH to He/Con_2b (FcγRIIa H over FcγRIIb), SPR
FcγRIa = molecular target: T4, FcγRIa (human, UniProt P12314 16-292); assay: SPR (Biacore), antibody captured on antigen peptide, FcγR as analyte; relative to GpH7-A5/GpH7-B3/GpL16-k0 = 100
T4 construct: extracellular domain; Soluble extracellular domain with C-terminal His tag, used as analyte in Biacore; also called FcgRI; 1a; not shown: His tag attached to the C terminus
T4 sequence (P12314 16-292): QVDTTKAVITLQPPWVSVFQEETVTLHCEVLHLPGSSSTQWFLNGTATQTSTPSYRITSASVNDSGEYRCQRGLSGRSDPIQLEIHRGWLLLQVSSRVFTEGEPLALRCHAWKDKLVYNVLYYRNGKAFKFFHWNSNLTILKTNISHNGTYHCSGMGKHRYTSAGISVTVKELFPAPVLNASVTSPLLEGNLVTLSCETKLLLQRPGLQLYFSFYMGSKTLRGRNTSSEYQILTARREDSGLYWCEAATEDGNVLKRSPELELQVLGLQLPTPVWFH

FcγRIIb = molecular target: T3, FcγRIIb; assay: as above

Binder | He/Con_2aH [1] | He/Con_2b [2] | He_2aH/2b (IIaH/IIb) [3] | He/Con_1a (FcγRIa) | He/Con_2b (FcγRIIb)
B1 | 70 relative, GpH7-A5/GpH7-B3/GpL16-k0 = 100 | 47.8 relative, GpH7-A5/GpH7-B3/GpL16-k0 = 100 | 1.46 | – | –
B2 | 64.4 relative, GpH7-A5/GpH7-B3/GpL16-k0 = 100 | 44.8 relative, GpH7-A5/GpH7-B3/GpL16-k0 = 100 | 1.44 | – | –
B3 | 61.6 relative, GpH7-A5/GpH7-B3/GpL16-k0 = 100 | 48.1 relative, GpH7-A5/GpH7-B3/GpL16-k0 = 100 | 1.28 | – | –
B4 | 98 relative, GpH7-A5/GpH7-B3/GpL16-k0 = 100 | 73.9 relative, GpH7-A5/GpH7-B3/GpL16-k0 = 100 | 1.33 | – | –
B5 | – | – | – | 93.7 % of control | 110 % of control
B6 | – | – | – | 98.6 % of control | 114 % of control
B7 | 78.6 relative, GpH7-A5/GpH7-B3/GpL16-k0 = 100 | 62.7 relative, GpH7-A5/GpH7-B3/GpL16-k0 = 100 | 1.25 | – | –
B8 | – | – | – | 99 % of control | 116 % of control
B9 | 91 relative, GpH7-A5/GpH7-B3/GpL16-k0 = 100 | 73.3 relative, GpH7-A5/GpH7-B3/GpL16-k0 = 100 | 1.24 | – | –
B10 | 85.1 relative, GpH7-A5/GpH7-B3/GpL16-k0 = 100 | 64.5 relative, GpH7-A5/GpH7-B3/GpL16-k0 = 100 | 1.32 | – | –
B11 | – | – | – | 97.1 % of control | 101 % of control
B12 | – | – | – | 92.2 % of control | 111 % of control
B13 | 84.1 relative, GpH7-A5/GpH7-B3/GpL16-k0 = 100 | 65.2 relative, GpH7-A5/GpH7-B3/GpL16-k0 = 100 | 1.29 | – | –
B14 | 70.4 relative, GpH7-A5/GpH7-B3/GpL16-k0 = 100 | 44.7 relative, GpH7-A5/GpH7-B3/GpL16-k0 = 100 | 1.57 | – | –
B15 | 102 relative, GpH7-A5/GpH7-B3/GpL16-k0 = 100 | 84.3 relative, GpH7-A5/GpH7-B3/GpL16-k0 = 100 | 1.21 | – | –
B16 | 98.5 relative, GpH7-A5/GpH7-B3/GpL16-k0 = 100 | 77.9 relative, GpH7-A5/GpH7-B3/GpL16-k0 = 100 | 1.26 | – | –
B17 | 105 relative, GpH7-A5/GpH7-B3/GpL16-k0 = 100 | 84.3 relative, GpH7-A5/GpH7-B3/GpL16-k0 = 100 | 1.24 | – | –
B18 | 69.4 relative, GpH7-A5/GpH7-B3/GpL16-k0 = 100 | 56.9 relative, GpH7-A5/GpH7-B3/GpL16-k0 = 100 | 1.22 | – | –
B19 | 103 relative, GpH7-A5/GpH7-B3/GpL16-k0 = 100 | 67.5 relative, GpH7-A5/GpH7-B3/GpL16-k0 = 100 | 1.53 | – | –
